Starred links: 1 amine or outer side, 2 acyl side, 3 side chain; linkers in the order of their positions; H or OH if unused. Positions of bridges follow the written chain, without caps; N, C: chain ends. Non-standard residues stand in square brackets, D forms with d. Groups on a side chain read outwards from the residue. *: point of attachment. PEG12 = NCCOCCOCCOCCOCCOCCOCCOCCOCCOCCOCCOCCOCCC(=O)O; Dip = N[C@H](C(=O)O)C(c1ccccc1)c1ccccc1; γGlu = O=C(O)[C@H](CCC(=O)[*:2])N[*:1]; Palmitoyl = CCCCCCCCCCCCCCCC(=O)*; NMeF = CN[C@@H](Cc1ccccc1)C(=O)O; αMeF = C[C@](N)(Cc1ccccc1)C(=O)O; β3hF = N[C@H](CC(=O)O)Cc1ccccc1; Isovaleryl = CC(C)CC(=O)*; βAla = NCCC(=O)O
T1: human ferroportin (SLC40A1) fused in frame with the GFP protein, stably expressed in HEK293 cells (human, UniProt Q9NP59 1-571)
T1 sequence (looked up): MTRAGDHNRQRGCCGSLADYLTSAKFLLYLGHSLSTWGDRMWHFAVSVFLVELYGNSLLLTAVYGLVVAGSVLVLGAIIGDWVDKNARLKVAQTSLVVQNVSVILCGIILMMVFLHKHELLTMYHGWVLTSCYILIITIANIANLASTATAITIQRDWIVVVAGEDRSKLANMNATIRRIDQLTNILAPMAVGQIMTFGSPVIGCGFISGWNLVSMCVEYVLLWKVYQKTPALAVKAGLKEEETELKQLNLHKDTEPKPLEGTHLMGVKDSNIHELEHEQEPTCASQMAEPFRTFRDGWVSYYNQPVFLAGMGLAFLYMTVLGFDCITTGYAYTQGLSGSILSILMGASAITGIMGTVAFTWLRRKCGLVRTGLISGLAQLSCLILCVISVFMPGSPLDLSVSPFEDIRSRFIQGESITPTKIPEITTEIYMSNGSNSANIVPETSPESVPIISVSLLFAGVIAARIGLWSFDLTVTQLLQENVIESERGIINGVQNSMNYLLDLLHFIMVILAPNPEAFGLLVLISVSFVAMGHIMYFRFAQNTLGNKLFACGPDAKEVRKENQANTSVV

T2: human ferroportin (SLC40A1) fused with GFP, stably expressed in HEK293 cells (human, UniProt Q9NP59 1-571)
T2 sequence (looked up): T1 sequence (looked up)

B1: Compd ID 210 (peptide)
peptide: Isovaleryl-DTHFPCIK([γGlu-Palmitoyl])FCK-NH2
modifications: disulfide 6-10
SMILES: CCCCCCCCCCCCCCCC(=O)N[C@@H](CCC(=O)NCCCC[C@@H]1NC(=O)[C@H]([C@@H](C)CC)NC(=O)[C@@H](NC(=O)[C@@H]2CCCN2C(=O)[C@H](Cc2ccccc2)NC(=O)[C@H](Cc2c[nH]cn2)NC(=O)[C@@H](NC(=O)[C@H](CC(=O)O)NC(=O)CC(C)C)[C@@H](C)O)CSSC[C@@H](C(=O)N[C@@H](CCCCN)C(N)=O)NC(=O)[C@H](Cc2ccccc2)NC1=O)C(=O)O
B2: Compd ID 202 (peptide)
peptide: Isovaleryl-DTHFPCIK([γGlu-Palmitoyl])FEPRSKC-NH2
modifications: disulfide 6-15
SMILES: CCCCCCCCCCCCCCCC(=O)N[C@@H](CCC(=O)NCCCC[C@@H]1NC(=O)[C@H]([C@@H](C)CC)NC(=O)[C@@H](NC(=O)[C@@H]2CCCN2C(=O)[C@H](Cc2ccccc2)NC(=O)[C@H](Cc2c[nH]cn2)NC(=O)[C@@H](NC(=O)[C@H](CC(=O)O)NC(=O)CC(C)C)[C@@H](C)O)CSSC[C@@H](C(N)=O)NC(=O)[C@H](CCCCN)NC(=O)[C@H](CO)NC(=O)[C@H](CCCNC(=N)N)NC(=O)[C@@H]2CCCN2C(=O)[C@H](CCC(=O)O)NC(=O)[C@H](Cc2ccccc2)NC1=O)C(=O)O
B3: Compd ID 201 (peptide)
peptide: Isovaleryl-DTHFPCIK([γGlu-Palmitoyl])FEPRSKGC-NH2
modifications: disulfide 6-16
SMILES: CCCCCCCCCCCCCCCC(=O)N[C@@H](CCC(=O)NCCCC[C@@H]1NC(=O)[C@H]([C@@H](C)CC)NC(=O)[C@@H](NC(=O)[C@@H]2CCCN2C(=O)[C@H](Cc2ccccc2)NC(=O)[C@H](Cc2c[nH]cn2)NC(=O)[C@@H](NC(=O)[C@H](CC(=O)O)NC(=O)CC(C)C)[C@@H](C)O)CSSC[C@@H](C(N)=O)NC(=O)CNC(=O)[C@H](CCCCN)NC(=O)[C@H](CO)NC(=O)[C@H](CCCNC(=N)N)NC(=O)[C@@H]2CCCN2C(=O)[C@H](CCC(=O)O)NC(=O)[C@H](Cc2ccccc2)NC1=O)C(=O)O
B4: Compd ID 203 (peptide)
peptide: Isovaleryl-DTHFPCIK([γGlu-Palmitoyl])FEPRSC-NH2
modifications: disulfide 6-14
SMILES: CCCCCCCCCCCCCCCC(=O)N[C@@H](CCC(=O)NCCCC[C@@H]1NC(=O)[C@H]([C@@H](C)CC)NC(=O)[C@@H](NC(=O)[C@@H]2CCCN2C(=O)[C@H](Cc2ccccc2)NC(=O)[C@H](Cc2c[nH]cn2)NC(=O)[C@@H](NC(=O)[C@H](CC(=O)O)NC(=O)CC(C)C)[C@@H](C)O)CSSC[C@@H](C(N)=O)NC(=O)[C@H](CO)NC(=O)[C@H](CCCNC(=N)N)NC(=O)[C@@H]2CCCN2C(=O)[C@H](CCC(=O)O)NC(=O)[C@H](Cc2ccccc2)NC1=O)C(=O)O
B5: Compd ID 206 (peptide)
peptide: Isovaleryl-DTHFPCIK([γGlu-Palmitoyl])FEC-NH2
modifications: disulfide 6-11
SMILES: CCCCCCCCCCCCCCCC(=O)N[C@@H](CCC(=O)NCCCC[C@@H]1NC(=O)[C@H]([C@@H](C)CC)NC(=O)[C@@H](NC(=O)[C@@H]2CCCN2C(=O)[C@H](Cc2ccccc2)NC(=O)[C@H](Cc2c[nH]cn2)NC(=O)[C@@H](NC(=O)[C@H](CC(=O)O)NC(=O)CC(C)C)[C@@H](C)O)CSSC[C@@H](C(N)=O)NC(=O)[C@H](CCC(=O)O)NC(=O)[C@H](Cc2ccccc2)NC1=O)C(=O)O
B6: Compd ID 204 (peptide)
peptide: Isovaleryl-DTHFPCIK([γGlu-Palmitoyl])FEPRC-NH2
modifications: disulfide 6-13
SMILES: CCCCCCCCCCCCCCCC(=O)N[C@@H](CCC(=O)NCCCC[C@@H]1NC(=O)[C@H]([C@@H](C)CC)NC(=O)[C@@H](NC(=O)[C@@H]2CCCN2C(=O)[C@H](Cc2ccccc2)NC(=O)[C@H](Cc2c[nH]cn2)NC(=O)[C@@H](NC(=O)[C@H](CC(=O)O)NC(=O)CC(C)C)[C@@H](C)O)CSSC[C@@H](C(N)=O)NC(=O)[C@H](CCCNC(=N)N)NC(=O)[C@@H]2CCCN2C(=O)[C@H](CCC(=O)O)NC(=O)[C@H](Cc2ccccc2)NC1=O)C(=O)O
B7: Compd ID 212 (peptide)
peptide: Isovaleryl-DTHFPCI[dK]([γGlu-Palmitoyl])[NMeF]GC-NH2
modifications: disulfide 6-11
SMILES: CCCCCCCCCCCCCCCC(=O)N[C@@H](CCC(=O)NCCCC[C@H]1NC(=O)[C@H]([C@@H](C)CC)NC(=O)[C@@H](NC(=O)[C@@H]2CCCN2C(=O)[C@H](Cc2ccccc2)NC(=O)[C@H](Cc2c[nH]cn2)NC(=O)[C@@H](NC(=O)[C@H](CC(=O)O)NC(=O)CC(C)C)[C@@H](C)O)CSSC[C@@H](C(N)=O)NC(=O)CNC(=O)[C@H](Cc2ccccc2)N(C)C1=O)C(=O)O
B8: Compd ID 214 (peptide)
peptide: Isovaleryl-DTHFPCIK([γGlu-Palmitoyl])[β3hF]C-NH2
modifications: disulfide 6-10
SMILES: CCCCCCCCCCCCCCCC(=O)N[C@@H](CCC(=O)NCCCC[C@@H]1NC(=O)[C@H]([C@@H](C)CC)NC(=O)[C@@H](NC(=O)[C@@H]2CCCN2C(=O)[C@H](Cc2ccccc2)NC(=O)[C@H](Cc2c[nH]cn2)NC(=O)[C@@H](NC(=O)[C@H](CC(=O)O)NC(=O)CC(C)C)[C@@H](C)O)CSSC[C@@H](C(N)=O)NC(=O)C[C@H](Cc2ccccc2)NC1=O)C(=O)O
B9: Compd ID 207 (peptide)
peptide: Isovaleryl-DTHFPCIK([γGlu-Palmitoyl])FC-NH2
modifications: disulfide 6-10
SMILES: CCCCCCCCCCCCCCCC(=O)N[C@@H](CCC(=O)NCCCC[C@@H]1NC(=O)[C@H]([C@@H](C)CC)NC(=O)[C@@H](NC(=O)[C@@H]2CCCN2C(=O)[C@H](Cc2ccccc2)NC(=O)[C@H](Cc2c[nH]cn2)NC(=O)[C@@H](NC(=O)[C@H](CC(=O)O)NC(=O)CC(C)C)[C@@H](C)O)CSSC[C@@H](C(N)=O)NC(=O)[C@H](Cc2ccccc2)NC1=O)C(=O)O
B10: Compd ID 215 (peptide)
peptide: Isovaleryl-DTHFPCIK([γGlu-Palmitoyl])[αMeF]C-NH2
modifications: disulfide 6-10
SMILES: CCCCCCCCCCCCCCCC(=O)N[C@@H](CCC(=O)NCCCC[C@@H]1NC(=O)[C@H]([C@@H](C)CC)NC(=O)[C@@H](NC(=O)[C@@H]2CCCN2C(=O)[C@H](Cc2ccccc2)NC(=O)[C@H](Cc2c[nH]cn2)NC(=O)[C@@H](NC(=O)[C@H](CC(=O)O)NC(=O)CC(C)C)[C@@H](C)O)CSSC[C@@H](C(N)=O)NC(=O)[C@](C)(Cc2ccccc2)NC1=O)C(=O)O
B11: Compd ID 205 (peptide)
peptide: Isovaleryl-DTHFPCIK([γGlu-Palmitoyl])FEPC-NH2
modifications: disulfide 6-12
SMILES: CCCCCCCCCCCCCCCC(=O)N[C@@H](CCC(=O)NCCCC[C@@H]1NC(=O)[C@H]([C@@H](C)CC)NC(=O)[C@@H](NC(=O)[C@@H]2CCCN2C(=O)[C@H](Cc2ccccc2)NC(=O)[C@H](Cc2c[nH]cn2)NC(=O)[C@@H](NC(=O)[C@H](CC(=O)O)NC(=O)CC(C)C)[C@@H](C)O)CSSC[C@@H](C(N)=O)NC(=O)[C@@H]2CCCN2C(=O)[C@H](CCC(=O)O)NC(=O)[C@H](Cc2ccccc2)NC1=O)C(=O)O
B12: Compd ID 142 (peptide)
peptide: DTHXPXIKFKXX
modifications: Isovaleric acid-DTH-[Dpa]-P-[Hcy]-I-[(D)Lys]-F-[Lys(Peg11-Palm)]-[Dap]-[Hcy]-NH2

Biological target: T1, human ferroportin (SLC40A1) fused in …
Test: cell-based or functional assay

Row | FPN IC50 | Binder
1 | 0.06 µM | B1
2 | 0.011 µM | B2
3 | 0.009 µM | B3
4 | 0.015 µM | B4
5 | 0.267 µM | B5
6 | 0.014 µM | B6
7 | 0.403 µM | B7
8 | 0.036 µM | B8
9 | 0.064 µM | B9
10 | 0.096 µM | B10
11 | 0.064 µM | B11

Biological target: T2, human ferroportin (SLC40A1) fused with …
Test: cell-based or functional assay

Row | FPN IC50 | Binder
12 | 0.018 µM | DTHXPCIKFKXX (Isovaleric acid-DTH-[Dpa]-PCI-[(D)Lys]-F-[Lys(Peg11-Palm)]-[Dap]-[Hcy]-NH2) [Compd ID 143]
13 | 0.032 µM | Isovaleryl-DTHFPCI[dK]FK([PEG12-Palmitoyl])CK-NH2 (disulfide 6-11 (inferred)) [Compd ID 144]
14 | 0.015 µM | DTHFPCIKFKPCK (Isovaleric acid-DTHFPCIKF-Lys[PEG11-Palm]-PCK-NH2) [Compd ID 9]
15 | 0.051 µM | DTHXPCIKFKXX (Isovaleric acid-DTH-[Dpa]-PCI-[(D)Lys]-F-[Lys(Peg11-Palm)]-[Dap]-[Pen]-NH2) [Compd ID 140]
16 | 0.0195 µM | DTHXPCIKFKKC (Isovaleric acid-DTH-[Dpa]-PCI-[(D)Lys]-F-[Lys(Peg11-Palm)]-[(D)Lys]-C-NH2) [Compd ID 139]
17 | 0.027 µM | DTHXPCIKFKXC (Isovaleric acid-DTH-[Dpa]-PCI-[(D)Lys]-F-[Lys(Peg11-Palm)]-[Orn]-C-NH2) [Compd ID 136]
18 | 0.022 µM | DTHXPCIKFKC (Isovaleric acid-DTH-[Dpa]-PCI-[(D)Lys]-F-[Lys(Peg11-Palm)]-C-NH2) [Compd ID 135]
19 | 0.0205 µM | DTHXPCIKFKXC (Isovaleric acid-DTH-[Dpa]-PCI-[(D)Lys]-F-[Lys(Peg11-Palm)]-[b-hLys]-C-NH2) [Compd ID 138]
20 | 0.0265 µM | DTHXPXIKFKXC (Isovaleric acid-DTH-[Dpa]-P-[Hcy]-I-[(D)Lys]-F-[Lys(Peg11-Palm)]-[Dap]-C-NH2) [Compd ID 141]
21 | 0.012 µM | B12
22 | 0.018 µM | Isovaleryl-DTH[Dip]PCI[βAla][β3hF]K([PEG12-Palmitoyl])[dK]C-NH2 (disulfide 6-12 (inferred)) [Compd ID 145]
23 | 0.023 µM | DTHXPCIKFKXC (Isovaleric acid-DTH-[Dpa]-PCI-[(D)Lys]-F-[Lys(Peg11-Palm)]-[Dab]-C-NH2) [Compd ID 137]
